Our source for the stoichiometry N (NUP153^1401-1475 per hexamer-2), percent bound to CA tubes and Kd values is article doi:10.1101/2020.08.10.245522.

The target of test [1] is CA hexamer-2 (HIV-1 | not stated). Put plainly: SEC-MALS. A general note: SEC sorts molecules by how far they enter the pores of the column.
The target in test [2] is A14C/E45C disulfide crosslinked CA tubes (HIV-1). Put plainly: co-sedimentation.
Test [3] addresses CA hexamer-2 (HIV-1 | not stated). Put plainly: ITC. On the technique in general: In ITC the heat of successive injections is recorded.

Chain of NUP153^1401-1475 (P49790 1401-1475): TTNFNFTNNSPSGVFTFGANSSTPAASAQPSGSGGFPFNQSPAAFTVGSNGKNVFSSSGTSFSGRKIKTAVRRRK

As for “NUP153^1401-1475 (from UniProt P49790 1401-1475) (domain or fragment)”, the stoichiometry N (NUP153^1401-1475 per hexamer-2) in test [1] came to 1.
In test [2], “NUP153^1411-1465 (from UniProt P49790 1411-1464) (domain or fragment)” registered a percent bound to CA tubes of 25%.
On to “NUP153^1465-1475 (from UniProt P49790 1465-1475) (domain or fragment)”, for which, in test [2], the percent bound to CA tubes was found to be 50%.
One may read the Kd as the equilibrium constant for the complex coming apart. A low value points to a tighter complex. As to “NUP153^1411-1475/1425-1464Δ peptide (25 aa) (from UniProt P49790 1411-1475)”, the Kd in test [3] was 800 nM.
